Experimental data: patent publication US20230285394A1, “METHODS OF TREATMENT OF NON-SMALL-CELL LUNG CARCINOMA USING TELISOTUZUMMAB VEDOTIN AND OSIMERTINIB” (AbbVie Biotherapeutics Inc., priority 2022, published 2023)

Experiments:
c-Met expressing NSCLC = test: First in human phase I trial of Teliso-V monotherapy (NCT02099058), best overall response by c-Met IHC cutoff; type: in vivo
Description: (§1) The clinical modeling data was obtained from the Teliso-V monotherapy trial NCT02099058. Abbreviations shown in FIG. 5 and determination of the values in the table are as follow: PPA (positive percent agreement): #oV positive uV positive/Total uV positive; NPA (Negative percent agreement): #oV negative uV negative/Total uV negative; OPA (Overall percent agreement): #oV positive uV positive+#oV negative uV negative/Total number of samples tested; PPV (Positive predictive value): #of oV positive uV positive/total #of oV positive; NPV (Negative predictive value): #of oV negative uV negative/Total oV negative. % BOR represents the percent best overall response.
as §1, with “FIG. 6” for “FIG. 5”
An analytical method comparison between SP44 Ultraview and SP44 OptiView on a large cohort of commercial NSCLC tissues was performed (FIG. 4). […] The overall percent agreement at this cutoff between the two assays was 93%. The first in human phase I clinical trial for Teliso-V monotherapy in NSCLC enrolled patients with an H-score of 150 using the SP44 UltraView assay. Upon re-scoring of the slides, the optimal cutoff utilizing the SP44 Ultraview IHC assay was ≥25% 3+ with a best overall response of 56%. The best overall response for the OptiView IHC assay at the same cutoff, ≥25% 3+, utilizing the phase I data through statistical modeling was 52% (FIG. 5).
The first in human phase I clinical trial for Teliso-V monotherapy in NSCLC enrolled patients with an H-score of 150 using the SP44 UltraView assay. […] The best overall response for the OptiView IHC assay at the same cutoff, ≥50% 3+, utilizing the phase I data through statistical modeling was 63% (FIG. 6).

[1] = test system: c-Met positive (≥25% 3+ IHC staining) advanced non-squamous NSCLC, EGFR mutant; test: Phase 2 study (NCT03539536) of Teliso-V monotherapy, objective response rate; type: in vivo, human; conditions: Teliso-V monotherapy 1.9 mg/kg

B1: telisotuzumab vedotin (conjugate, chains of the INN, looked up)
VH: QVQLVQSGAEVKKPGASVKVSCKASGYIFTAYTMHWVRQAPGQGLEWMGWIKPNNGLANYAQKFQGRVTMTRDTSISTAYMELSRLRSDDTAVYYCARSEITTEFDYWGQGTLVTVSS
VL: DIVMTQSPDSLAVSLGERATINCKSSESVDSYANSFLHWYQQKPGQPPKLLIYRASTRESGVPDRFSGSGSGTDFTLTISSLQAEDVAVYYCQQSKEDPLTFGGGTKVEIK
modifications: vc-MMAE payload
notes: ADC of the c-Met targeting antibody ABT-700 conjugated to monomethyl auristatin E (MMAE) through a valine citrulline linker
c-Met expressing NSCLC; patients at ≥25% 3+ cutoff, OptiView IHC assay, phase I data through statistical modeling
  best overall response: 52%
c-Met expressing NSCLC; patients at ≥25% 3+ cutoff, SP44 Ultraview IHC assay, re-scored slides
  best overall response: 56%
c-Met expressing NSCLC; patients at ≥50% 3+ cutoff, OptiView IHC assay, phase I data through statistical modeling
  best overall response: 63%
c-Met expressing NSCLC; patients at ≥50% 3+ membrane staining cutoff, SP44 Ultraview IHC assay, re-scored slides
  best overall response: 67%
[1]; non-squamous NSCLC EGFR mutant patients, c-Met ≥25% 3+, interim analysis
  ORR (CR + PR): 11.6%
[1]; subset of EGFR mutant subjects previously treated with osimertinib
  ORR (CR + PR): 0%
[1]; subset of EGFR mutant subjects previously treated with osimertinib, listed as Teliso V
  ORR (CR + PR): 0%
